Source: the RNAGym collection of RNA variant scans (doi:10.1073/pnas.2313332121)

B1: TPR t1 (parent)
chain: GACCAAUCUGCCCUCAGAGCUCGAGAACAUCUUCGGAUGCAGAGGAGGCAGGCUUCGGUGGCGCGAUAGCGCCAACGUCCUCAACCUCCAAUGCAUCCCACCACAUGAUGAUGCCUGAAGAGCCUUGGUUUUUUG

Variants of: B1
Assay: polymerase ribozyme fitness, log enrichment relative to wild type (log ratio); higher = more active; in vitro selection for triplet polymerase activity
Outline: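 A single round of triplicate in vitro selection, including frozen incubation at −7 °C, was applied to PCR-built, transcribed mutant libraries of each subunit of a heterodimeric triplet polymerase ribozyme. Illumina sequencing of input and output libraries retained genotypes with ≥10 input reads and ≥1 read per output. Fitness is the base-2 logarithm of genotype enrichment divided by wild-type enrichment, from inverse-variance-weighted replicate averages.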

| Variant | polymerase ribozyme fitness (log ratio) |
| --- | --- |
| G71U G77C C86U | -2.09 |
| C62U A103U | -4.85 |
| C89G C115A G120C | -1.16 |
| G110C U131C G135A | -2.51 |
| U54G C62A A95C A121G | -6.12 |
| A2U C88A A121U | -0.332 |
| C8G C72U A90C A91U A95G | -1.1 |
| C72A A100U U106C | -0.411 |
| C11U A90G C97G U129C | -5.59 |
| C72G U112A | 0.104 |
| A6U C12A | 0.811 |
| A26U G51A U54A G69C G117C | -7.56 |
| C53G C72A U81A G120C C123G | -1.65 |
| G36U C53G C56A | -1.45 |
| A74U C114A U129A | -3.53 |
| G71A G113U | -3.89 |
| G71C A121G | 0.226 |
| C97U G120U | -0.768 |
| C20U U55G G69U C99A | -3.12 |
| G58C | 0.031 |
| A5C G45U | -1.36 |
| A27U C80U | -3.34 |
| A6U C22G A41C G71U | -3.47 |
| A75G C82U A83C G93A A105C | -3.08 |

| Variant | polymerase ribozyme fitness (log ratio) |
| --- | --- |
| G25U A29G G45A C80U G110U | -6.86 |
| A2C U21A | -2.19 |
| A2C C4U G10A G57C G61U | -2.37 |
| C12U G39U C62A U78A | -1.41 |
| G10A U106C | -0.101 |
| A18C A95U | -3.68 |
| C40U G71C | -1.58 |
| G65A A111C | -5.66 |
| C8U C15G A37U | -1.75 |
| C49A G71U C89A U130C | -2.94 |
| C11G C56G G57A U96C G113U | -3.3 |
| A26G A43U A50U C72A | -5.38 |
| A27G A100U G120U | -3.21 |
| C49G G61A U81C G120C | -3.67 |
| U78C G120U | -0.256 |
| G71A C82G | -2.5 |
| C73G C104G A121G | -5.73 |
| G61U C85G | -2.33 |
| C56A G117A U125G G128C | -4.73 |
| G61A A105G | -1.89 |
| U59C C94A | -1.01 |
| C13A G23C A50G G113C | -6.66 |
| G10U G39U | -0.472 |
| C13U U55G C72G A100C A111U | -4.67 |

| Variant | polymerase ribozyme fitness (log ratio) |
| --- | --- |
| U116G U130C | -2.14 |
| C12G A29U G117A | -2 |
| C22A G61A U129G | -5.57 |
| A74U C88A C104A | -2.72 |
| C88G G113C | -2.74 |
| A37G G52A G61U | -3.07 |
| C20U C62G C101U G110C | -6.8 |
| A41U C72G | -2.06 |
| C11A C56A A66G C85A U112A | -4.09 |
| C4A G48C C62A | -3.18 |
| G10U U14A G113C G122A | -3.62 |
| U32C A37U U38A G48U U96G | -1.88 |
| G45U C72U | -1.63 |
| U7C G36A U116C A118U U132A | -2.98 |
| U9C C22U G58A G61C C114A | -4.7 |
| C22G C40A | -4.68 |
| C3U G48U C49G C99U | -4.65 |
| G48U C62U G71C U96A | -2.08 |
| C123U G128C | -0.354 |
| G110A G113C | -4.78 |
| A91C G120U | -1.5 |
| U54A U59A G60C U106A C124A G128U | -0.601 |
| C40U C85A U129G U132C | -5.2 |
| C15U U30G C53G G71C U78G U106A | -4.3 |

| Variant | polymerase ribozyme fitness (log ratio) |
| --- | --- |
| C22U G63U U78G U112A | -6.24 |
| A37U U54C G60U C123U | 1.13 |
| G48U A50U C89G U106A U116C C124U | -3.34 |
| C11G U112C | 1.9 |
| G10U C15G G61A | -1.63 |
| G58A A91C C101A | -1.1 |
| C40U G42C C53A C104A | -4.78 |
| A18U G47U | -3.96 |
| U7G G77C C97U U109A | -6.1 |
| G63A G93C G113U G135A | -4.37 |
| A50G G71C G113U U126A | -6 |
| G47U A66C C115U U130A G135A | -5.53 |
| C8U C11A C124U | 1.17 |
| G10C G48A C64U G117U U125G | -6.03 |
| A2C G47A G93U | -5.29 |
| C3U G57U G69A | -3.04 |
| C12A C15G C56G | -2.69 |
| C12U A37C G113A C123G | 0.27 |
| A50G G57C G61U C88G | -3.3 |
| U14G C76A | -2.76 |
| A18U U129G | -3.92 |
| C12U A27C A95U U125A | -3.79 |
| U30G G69U U78G | -3.84 |
| C20G A41U C73G U87C U92A C123G | -4.71 |

| Variant | polymerase ribozyme fitness (log ratio) |
| --- | --- |
| C12G U14C C85U C86U | -1.22 |
| A43C G45U C73A A91U G93A U112A G128C | -5.37 |
| G77A C102A | -2.07 |
| A43C U54C G58A C86A | -3.78 |
| G61C C73G U134G G135C | -1.75 |
| G113U G128A | -3.35 |
| U78C A105G U112G | -3.99 |
| A2C C13U G77A C123U | 0.26 |
| C79A A91G | -2.3 |
| G44U G120U U131A | -1.89 |
| G45U U54A | -1.35 |
| A6U A75U C82A C115A U125A G128C | -3.75 |
| C11A U38G G48C C115G G122U | -2.9 |
| A18C C56A C73U C86U A90G U106A A108C U112A | -5.34 |
| C80U G113C | -3.19 |
| A5G U78A A95C U106G | -3.66 |
| C62A U78C | -1.1 |
| C72U A111C | 0.581 |
| A29C A121U | 0.0449 |
| A66C C89A G117U | -6.24 |
| G61A G93A | -0.586 |
| A105G G113U | -5.05 |
| C82U A111G | -0.268 |
| G10C C13G C94A | -0.274 |

| Variant | polymerase ribozyme fitness (log ratio) |
| --- | --- |
| C15A C64U | -2.36 |
| U32A G47C C53G C86A | -6.08 |
| U7G C11G U33A A90G C101A | -6.24 |
| C86G A90C U96C U112A C124A | -1.78 |
| C56U U106G U116C | -3.48 |
| G48U G71U U96C | -1.48 |
| C11G G39A G120C G127C | 0.971 |
| G48U C73G G110U G120U | -4.95 |
| C13U A16G A50U A90G | -0.51 |
| C3U C13U A37C C70A | -1.1 |
| C11U C34A G48U U87A | -5.34 |
| G19U G39C C53U G71U U81A G93U C114A | -4.82 |
| G93A U109A | -5.41 |
| A5G C12G G71C A121G | 0.0981 |
| C8U G51A A121C U131G | -0.214 |
| G36C G63U A95C A111U | -6.67 |
| C70U U130G | -1.24 |
| A2C C13U C86U G110U G120C | -4.02 |
| A27G C64U G77U C85A U130C | -4.3 |
| U7A C12A G35A C53U | -5.51 |
| U14G G52A G93A | -3.09 |
| G45C C115U A121G G128A | -4.67 |
| C8G U32A | -3.34 |
| U54G G120A | -0.587 |

| Variant | polymerase ribozyme fitness (log ratio) |
| --- | --- |
| C11A U92A | -4.36 |
| C22G G52U G63C G93A | -4.47 |
| G42U C56G C73A | -4.4 |
| G60U C89A A111C C114A | -4.37 |
| G19A G60A A90C | -2.74 |
| A6C C70A C73U | -2.44 |
| A24G A46C A111C U130G | -3.43 |
| C40A G63U U81A U129A | -5.05 |
| G17A G39U | -3.39 |
| G93U G113C U125A | -3.4 |
| C12A G17A | -4.31 |
| A68U C124A | -4.62 |
| A24G C64U | -1.79 |
| C8G C13A U67C | -4.98 |
| C62A A74U U81C | -5.14 |
| U14G G71U | -2.33 |
| G10U C64U G113C | -1.87 |
| C56U G77A G117U G120A C124A | -1.34 |
| C4U C20A | -2.6 |
| G23U G120C | -3.8 |
| A43U A46U G47U G117U | -7.8 |
| C56A G110A | -0.447 |
| C11G G93C A105U A119U | -3.55 |
